B1: Protein bicaudal D homolog 2 (Homo sapiens), Q8TD16 (parent)
chain: MSAPSEEEEYARLVMEAQPEWLRAEVKRLSHELAETTREKIQAAEYGLAVLEEKHQLKLQFEELEVDYEAIRSEMEQLKEAFGQAHTNHKKVAADGESREESLIQESASKEQYYVRKVLELQTELKQLRNVLTNTQSENERLASVAQELKEINQNVEIQRGRLRDDIKEYKFREARLLQDYSELEEENISLQKQVSVLRQNQVEFEGLKHEIKRLEEETEYLNSQLEDAIRLKEISERQLEEALETLKTEREQKNSLRKELSHYMSINDSFYTSHLHVSLDGLKFSDDAAEPNNDAEALVNGFEHGGLAKLPLDNKTSTPKKEGLAPPSPSLVSDLLSELNISEIQKLKQQLMQMEREKAGLLATLQDTQKQLEHTRGSLSEQQEKVTRLTENLSALRRLQASKERQTALDNEKDRDSHEDGDYYEVDINGPEILACKYHVAVAEAGELREQLKALRSTHEAREAQHAEEKGRYEAEGQALTEKVSLLEKASRQDRELLARLEKELKKVSDVAGETQGSLSVAQDELVTFSEELANLYHHVCMCNNETPNRVMLDYYREGQGGAGRTSPGGRTSPEARGRRSPILLPKGLLAPEAGRADGGTGDSSPSPGSSLPSPLSDPRREPMNIYNLIAIIRDQIKHLQAAVDRTTELSRQRIASQELGPAVDKDKEALMEEILKLKSLLSTKREQITTLRTVLKANKQTAEVALANLKSKYENEKAMVTETMMKLRNELKALKEDAATFSSLRAMFATRCDEYITQLDEMQRQLAAAEDEKKTLNSLLRMAIQQKLALTQRLELLELDHEQTRRGRAKAAPKTKPATPSL

Tests used:
[1] = variants of: B1; details: with rab6a_human RAB6A
[2] = variants of: B1; details: with dc1i1_human DYNC1I1, O14576
[3] = variants of: B1; details: with rab6a_human RAB6A; remark: listed apart in the source

Chain of dc1i1_human DYNC1I1, O14576 (O14576 whole entry): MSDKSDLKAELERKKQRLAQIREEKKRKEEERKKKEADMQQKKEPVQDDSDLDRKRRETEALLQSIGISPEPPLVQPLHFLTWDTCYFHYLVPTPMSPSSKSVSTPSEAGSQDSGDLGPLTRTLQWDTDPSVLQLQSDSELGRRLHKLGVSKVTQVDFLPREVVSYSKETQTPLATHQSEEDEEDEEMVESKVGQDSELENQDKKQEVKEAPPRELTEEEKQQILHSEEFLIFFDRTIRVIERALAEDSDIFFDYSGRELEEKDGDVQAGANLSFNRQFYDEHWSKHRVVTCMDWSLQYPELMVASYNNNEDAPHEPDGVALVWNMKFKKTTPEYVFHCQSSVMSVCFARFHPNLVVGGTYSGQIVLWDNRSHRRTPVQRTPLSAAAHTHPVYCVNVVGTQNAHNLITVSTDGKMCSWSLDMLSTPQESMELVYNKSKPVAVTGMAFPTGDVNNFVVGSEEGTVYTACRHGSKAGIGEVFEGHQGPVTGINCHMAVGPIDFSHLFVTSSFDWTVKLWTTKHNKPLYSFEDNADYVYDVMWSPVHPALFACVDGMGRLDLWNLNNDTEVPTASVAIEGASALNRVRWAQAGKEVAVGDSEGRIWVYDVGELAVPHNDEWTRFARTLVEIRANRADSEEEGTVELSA

Row | Variant | effect of a mutation on the interaction [1] | effect of a mutation on the interaction [2] | effect of a mutation on the interaction [3]
1 | E774G | decreasing interaction strength |  | 
2 | S107L | with no effect | increasing interaction strength | decreasing interaction strength

— IntAct's records for PubMed 23664119
